Source: patent publication US6429304B1, “Nucleic acids encoding a katanin p60 subunit” (The Regents of the University of California, priority 1998, dated 2002)

Experiments:
[1] = tested on: DAPI-labeled microtubules; test: DAPI fluorescence microtubule disassembly (severing) assay; type: biochemical, bovine; conditions: 0.2 μM protein, 2 μM microtubules
Excerpt: To better compare the microtubule severing activities of p60 and p60/p80, we developed a quantitative microtubule disassembly assay based upon a previous finding that DAPI fluorescence intensity is higher when this dye is bound to polymerized versus free tubulin (Heusele et al. (1987) Eur. J Biochem. 165: 613-620). […] This slower rate of microtubule disassembly is consistent with the previously described 2-fold decrease in ATPase activity of p60 compared with p60/p80.
ATPase activity was measured by a modified malachite green method (Kodama et al. (1986) J. Biochem. 99: 1465-1472). […] Microtubule concentration was determined by measuring the absorbance at 275 nm in 6 M guanidine HCl by using a molecular mass of 110 kDa and an extinction coefficient of 1.03 ml mg^−1 cm^−1 (Hackney (1988) Proc. Natl. Acad Sci. USA, 85: 6314-6318). […]
DAPI severing assays were performed using conditions where the change in fluorescence intensity was linear with the amount of tubulin polymer added (Heusele et al. (1987) Eur. J Biochem. 165: 613-620). […] The reaction volume was 80 μL, and fluorescence intensity was measured by exciting at 370 nm. and measuring the emission at 450 mn using a model 8100 fluorimeter (SLM Instruments) in photon counting mode.

[2] = ATPase assay (modified malachite green method); type: biochemical; conditions: for microtubule concentration at peak stimulation of ATP turnover: non-hyperbolic, decreases at higher microtubule concentrations
Experimental: ATPase activity was measured by a modified malachite green method (Kodama et al. (1986) J. Biochem. 99: 1465-1472). ATPase reactions of 50-100 μl were carried out in a buffer previously used for measuring the ATPase activity of native katanin [20 mM K-HEPES pH 8.0, 25 mM potassium glutamate 2 mM MgCl2, 10% glycerol (v/v), 0.02% Triton X-100 (w/v), 1 mg/ml BSA] (McNally and Vale (1993) Cell, 75: 419-429), except that soybean trypsin inhibitor (SBTI) was replaced by BSA as a carrier protein because SBTI increased background phosphate contamination. An ATP regenerating system, consisting of 0.5-1.0 mM phosphoenol pyruvate and 2 units of pyruvate kinase, was included to minimize the inhibition by ADP observed previously for native katanin (McNally and Vale (1993) Cell, 75: 419-429). Microtubules were prepared from bovine brain tubulin (Hyman et al. (1990) Meth. Enzymol. 196: 303-319; and Williams and Lee (1982) Meth Enzymol. 85B: 376-385). After assembly, microtubules were sedimented (230,000×g; 10 min), resuspended in ATPase buffer lacking BSA, and the polymers were resuspended by repeated passage through a 27 gauge needle. Microtubule concentration was determined by measuring the absorbance at 275 nm in 6 M guanidine HCl by using a molecular mass of 110 kDa and an extinction coefficient of 1.03 ml mg^−1 cm^−1 (Hackney (1988) Proc. Natl. Acad Sci. USA, 85: 6314-6318). ATPase reactions were carried out at room temperature, and were initiated by addition of katanin.

[3] = tested on: Taxol-stabilized, rhodamine-labeled microtubules; test: Microscope-based microtubule severing assay; type: biochemical; conditions: for time until microtubules were completely disassembled: 0.1 μM protein, 1 mM ATP; for microtubule severing (in words): p60, p60/p80 0.1 μM, p80 0.5 μM (5-fold higher)
Experimental: FIGS. 5A, 5B, and 5C illustrate the activities of recombinant katanin subunits. […] Taxol-stabilized, rhodamine-labeled microtubules were adsorbed onto the surface of a microscope perfusion chamber, and then recombinant katanin subunits were introduced. The time elapsed after perfusing p60/p80 (0.1 μM), p60 (0.1 μM), or p80 (0.5 μM) is shown. The recombinant co-expressed p60/p80 and p60, but not p80, can sever and disassemble microtubules. Scale bar, 10 μm.
Microscope-based severing assays were performed using previously published procedures (McNally and Vale (1993) Cell, 75: 419-429), except that microtubules were immobilized by first perfusing flow cells with a bacterially expressed kinesin mutant that binds strongly to microtubules but is unable to hydrolyze ATP (K560, G234A mutant; R. Vale and E. Taylor, unpublished results). Assays were performed in 20 mM Hepes (pH 7.5), 2 mM MgCl2, 1 mM ATP with an oxygen scavenger system consisting of glucose oxidase (220 μg/ml), catalase (36 μg/ml), glucose (22.5 mM), and 2-mercaptoethanol (71.5 mM). Images were captured using a cooled, slow-scan CCD (Photometerics) and processed using Adobe Photoshop.

Row | Molecule | rate of microtubule disassembly compared with p60/p80 [1] | ATPase activity (in words) ([2]; baculovirus-expressed subunit alone) | maximal basal and microtubule-stimulated ATPase rates relative to p60/p80 heterodimer ([2]; compared with p60/p80) | microtubule concentration at peak stimulation of ATP turnover [2] | time until microtubules were completely disassembled [3] | microtubule severing (in words) [3] | ATP turnover rate ([2]; basal, without microtubules) | stimulation of ATPase activity by microtubules ([2]; maximal stimulation) | basal ATPase activity ([2]; basal) | maximal microtubule-stimulated ATPase rate ([2]; microtubule-stimulated)
1 | p60: S. purpuratus katanin p60 subunit, 516 a.a. AAA ATPase (SEQ ID NO:1), baculovirus-expressed with N-terminal His(6) tag (protein, listed as Strongylocentrotus purpuratus, N-terminal His6 tag; katanin p60 subunit) MSVDEICENTKMGREYALLGNYETSLVYYQGVLQQIQKLLTSVHEPQRKHQWQTIRQELSQEYEHVKNITKTLNGFKSEPAAPEPAPNHRAAPFSHHQHAAKPAAAEPARDPDVWPPPTPVDHRPSPPYQRAARKDPPRRSEPSKPANRAPGNDRGGRGPSDRRGDARSGGGGRGGARGSDKDKNRGGKSDKDKKAPSGEEGDEKKFDPAGYDKDLVENLERDIVQRNPNVHWADIAGLTEAKRLLEEAVVLPLWMPDYFKGIRRPWKGVLMVGPPGTGKTMLAKAVATECGTTFFNVSSASLTSKYHGESEKLVRLLFEMARFYAPSTIFIDEIDSICSKRGTGSEHEASRRVKSELLIQMDGVSGPSAGEESSKMVMVLAATNFPWDIDEALRRRLEKRIYIPLPEIDGREQLLRINLKEVPLADDIDLKSIAEKMDGYSGADITNVCRDASMMAMRRRIQGLRPEEIRHIPKEELNQPSTPADFLLALQKVSKSVGKEDLVKYMAWMEEFGSV | half as active as p60/p80 | displayed a microtubule-stimulated ATPase activity | 2 fold lower | ~2 μM tubulin | 5 min | severed microtubules | – | – | – | –
2 | p60/p80: co-expressed recombinant katanin p60/p80 heterodimer complex from baculovirus-infected insect cells (protein) chain 1: HHHHHHMSVDEICENTKMGREYALLGNYETSLVYYQGVLQQIQKLLTSVHEPQRKHQWQTIRQELSQEYEHVKNITKTLNGFKSEPAAPEPAPNHRAAPFSHHQHAAKPAAAEPARDPDVWPPPTPVDHRPSPPYQRAARKDPPRRSEPSKPANRAPGNDRGGRGPSDRRGDARSGGGGRGGARGSDKDKNRGGKSDKDKKAPSGEEGDEKKFDPAGYDKDLVENLERDIVQRNPNVHWADIAGLTEAKRLLEEAVVLPLWMPDYFKGIRRPWKGVLMVGPPGTGKTMLAKAVATECGTTFFNVSSASLTSKYHGESEKLVRLLFEMARFYAPSTIFIDEIDSICSKRGTGSEHEASRRVKSELLIQMDGVSGPSAGEESSKMVMVLAATNFPWDIDEALRRRLEKRIYIPLPEIDGREQLLRINLKEVPLADDIDLKSIAEKMDGYSGADITNVCRDASMMAMRRRIQGLRPEEIRHIPKEELNQPSTPADFLLALQKVSKSVGKEDLVKYMAWMEEFGSV chain 2: HHHHHHMATKRAWKLQELVAHSSNVNCLALGPMSGRVMVTGGEDKKVNLWAVGKQNCIISLSGHTSPVDSVKFNSSEELVVAGSQSGTMKIYDLEPAKIVRTLTGHRNSIRCMDFHPFGEFVASGSTDTNVKLWDVRRKGCIYTYKGHSDQVNMIKFSPDGKWLVTASEDTTIKLWDLTMGKLFQEFKNHTGGVTGIEFHPNEFLLASGSSDRTVQFWDLETFQLVSSTSPGASAVRSISFHPDGSYLFCSSQDMLHAFGWEPIRCFDTFSVGWGKVADTVIASTQLIGASFNATNVSVYVADLSRMSTTGIAQEPQSQPSKTPSGGAEEVPSKPLTASGRKNFVRERPHTTSSKQRQPDVKSEPERQSPTQDEGVKDDDATDIKDPDSYAKIFSPKTRVDHSPERNAQPFPAPLDVPGAQEPEPFKHPPKPAAAAAVAPVSRAPAPSASDWQPAQANPAPNRVPAATKPVPAQEVAPSRKPDPISTIIPSDRNKPANLDMDAFLPPAHAQQAPRVNAPASRKQSDSERIEGLRKGHDSMCQVLSSRHRNLDVVRAIWTAGDAKTSVESVVNMKDQAILVDILNIMLLKKSLWNLDMCVVVLPRLKELLSSKYENYVHTSCACLKLILKNFTSLFNQNIKCPPSGIDITREERYNKCSKCYSYLIATRGYVEEKQHVSGKLGSSFRELHLLLDQLE | – | – | – | ~2 μM tubulin | 5 min | severed microtubules | 0.3 ATP/sec/heterodimer | ~10 fold | – | –
3 | Katanin: heterodimer of 60 kDa and 80 kDa subunits, microtubule-severing ATPase from sea urchin eggs (protein) chain 1: HHHHHHMSVDEICENTKMGREYALLGNYETSLVYYQGVLQQIQKLLTSVHEPQRKHQWQTIRQELSQEYEHVKNITKTLNGFKSEPAAPEPAPNHRAAPFSHHQHAAKPAAAEPARDPDVWPPPTPVDHRPSPPYQRAARKDPPRRSEPSKPANRAPGNDRGGRGPSDRRGDARSGGGGRGGARGSDKDKNRGGKSDKDKKAPSGEEGDEKKFDPAGYDKDLVENLERDIVQRNPNVHWADIAGLTEAKRLLEEAVVLPLWMPDYFKGIRRPWKGVLMVGPPGTGKTMLAKAVATECGTTFFNVSSASLTSKYHGESEKLVRLLFEMARFYAPSTIFIDEIDSICSKRGTGSEHEASRRVKSELLIQMDGVSGPSAGEESSKMVMVLAATNFPWDIDEALRRRLEKRIYIPLPEIDGREQLLRINLKEVPLADDIDLKSIAEKMDGYSGADITNVCRDASMMAMRRRIQGLRPEEIRHIPKEELNQPSTPADFLLALQKVSKSVGKEDLVKYMAWMEEFGSV chain 2: HHHHHHMATKRAWKLQELVAHSSNVNCLALGPMSGRVMVTGGEDKKVNLWAVGKQNCIISLSGHTSPVDSVKFNSSEELVVAGSQSGTMKIYDLEPAKIVRTLTGHRNSIRCMDFHPFGEFVASGSTDTNVKLWDVRRKGCIYTYKGHSDQVNMIKFSPDGKWLVTASEDTTIKLWDLTMGKLFQEFKNHTGGVTGIEFHPNEFLLASGSSDRTVQFWDLETFQLVSSTSPGASAVRSISFHPDGSYLFCSSQDMLHAFGWEPIRCFDTFSVGWGKVADTVIASTQLIGASFNATNVSVYVADLSRMSTTGIAQEPQSQPSKTPSGGAEEVPSKPLTASGRKNFVRERPHTTSSKQRQPDVKSEPERQSPTQDEGVKDDDATDIKDPDSYAKIFSPKTRVDHSPERNAQPFPAPLDVPGAQEPEPFKHPPKPAAAAAVAPVSRAPAPSASDWQPAQANPAPNRVPAATKPVPAQEVAPSRKPDPISTIIPSDRNKPANLDMDAFLPPAHAQQAPRVNAPASRKQSDSERIEGLRKGHDSMCQVLSSRHRNLDVVRAIWTAGDAKTSVESVVNMKDQAILVDILNIMLLKKSLWNLDMCVVVLPRLKELLSSKYENYVHTSCACLKLILKNFTSLFNQNIKCPPSGIDITREERYNKCSKCYSYLIATRGYVEEKQHVSGKLGSSFRELHLLLDQLE | – | – | – | – | – | – | – | – | 0.3 ATP/katanin/sec | 3 ATP/katanin/sec
